Reference: the nanobody polyreactivity screen of Harvey et al. (2022)

Experiment: yeast display, Sf9 membrane polyspecificity reagent, FACS + sequencing; frameworks hold sequencing errors
Procedure, shortened: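 Synthetic nanobody libraries on Saccharomyces cerevisiae BJ5465 were galactose-induced for 36–48 hours, stained 1 hour at 4 °C with 10% biotinylated, detergent-solubilized Sf9 membrane reagent and enriched on streptavidin microbeads. FACS then separated cells into low and high (top ~1%) gates by anti-HA (expression) and streptavidin (reagent binding) fluorescence. Genes were colony-PCR amplified, MiSeq 2 × 250 sequenced and CDR-length filtered. A clone's polyreactivity label is that of its gate of origin.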

Sequence	polyreactivity (PSR sort gate)
QVQLVESGGGLVQAGGSLRLSCAASGFTFVYNAMGWYRQAPGKERELVAAITSGGNTYYADSVKGRFTISRDNAKNTVYLQMNSLKPEDTAVYYCAKRGYVRYYAYDYWGQGTQVTVSS	high polyreactivity
QVQLVESGGGLVQAGGSLRLSCAASGITFGLYAMGWYRQAPGKERELVAAITWRGGSTYYADSVKGRFTISRDNAKNTVYLQMNSLKPEDTAVYYCAADFSGYSDDYWGQGTQVTVSS	high polyreactivity
QVQLVESGGGLVQPGGSLRLSCAASGRTIERNTMGWYRQAPGKERELFAAISYDGGSTYYADSVKGRFTISRDNAKNTVYLQMNSLKPEDTAVYYCNAGGSEIYRSPFDYWGQGTEVTVSS	low polyreactivity
QDQLVESGGGLVQAGGSLRLICASSGSNFESNTMGWYRQAPGKERELLAAINWSGGRTYYADSVKGRFSISRDNAKNTVYLQINSLKPEDTAVYYCATGTYSDYKLGQQLWGRYNYWGQGTQVSVSS	high polyreactivity
QVQLVESGGGLVQAGGSLRLSCAASGSIFTVYGMGWYRQAPGKERELVAAISRSGGSTYYADSVKGRFTISRDNAKNTVYLQMNSLKPEDTAVYYCNADLVYNTLIYSGGDEYDYWGQGTQVTVSS	high polyreactivity
QVQLVESGGGLDQAGGSLRLSCAASGSIFKLNARGWYREAPGKERELVAAITSVGRTYYADSVKGRFTISRDNAKKTVYLQMNSLKPEDTAVYYCGAARYGVYWYGYWGQGTQVTVSS	high polyreactivity
QVQLVESGGGVVQAGGSLRLSCAASGSIFPINAMGWYRQAPGKERELVAAITSGGSTNYADSVKGRFTISRDNAKNTVYLQMNSLKPEDTAVYYCAADWRYWRWAFDYWGQGTQVTVSS	high polyreactivity
QVQLVESGGGLVQAGGSLRLSCAASGSTFSRNAMGWYRQAPGKERELVAAINYSGGITYYADSVKGRFTISRDNAKNTVYLQMNSLKPADTAVYYCAKRGIGDPGQHPLGFGYWGQGTQVTVSS	low polyreactivity
QVQLVESGGGLVQAGGSLRLSCAASGGTFSTYAMGWYRQAPGKERELVAAISWRGGSTYYADSVKGRFTISRDNAKNTVYLQMNSLKPEDTAVYYCAAYYSRGWLLYWDEMSYWGQGTQVTVSS	high polyreactivity
QVQLVESGGGLVQAGGSLRLSCAASGFIFRTNAMGWYRQAPGKERELVAAISRSGNTYYADSVKGRFTISRDNAKNTVYLQMNSLKPEDTAVYYCNAGWYGAYRWYRSDYWGQGTQVTVSS	high polyreactivity
QVQLVESGGGLVQAGGSLRLSCAASGITIYKNAMGWYRQAPGKERELFAAITRGGSTYYADSVKGRFTISRDNAKNTVYLQMNCLKPEDTAVYYCNKVYHWQTPGFGYGYWGQGTQVTVST	high polyreactivity
QVQLVESGGGLVQAGGSLRLSCAASGRIFLRNAMGWFRQAPGKERELVAAIRGSGGSTYYADSVKRRFTISRDHAKTTVYLQTNSLKPEDTPVYYCAVASYYRYSHTYGYWGQGTQVTVSS	high polyreactivity
QVQLVESGGGLVQAGGSLRLSCAASGSTFVYYVMGWYRQAPGKQRELVAAISTSGGSTYYADSVKGRFTISRDNAKKTVYLQMNSLKPEDTAVYYCAARVYYKYDYWGQGTQVTVSS	low polyreactivity
QVHLVDSGAGLVQAGGSLRLSCAASGYTFYANAMGWYRQAPGKERELVAGINRSGSTYYADSVKGRFTISRDNAKNTVYLQMNSLKPEDTAVYYCATAWHRGVRGRTSGAFDYWGQGTQVTVSS	high polyreactivity
QLQLLESDGGLVQAGVSLRLSCATSAMTISRYTMGWYRQAPGKARELVAVITYRGGSTYYADSVKGRFTISRDNAKNTVYLQMNSLKPEDTAVYYCAAGRRTYGLTYDYWGQGTQVTVSS	high polyreactivity
QVQLVESGGGLVQAGGSLRLSCAASGIIFQAYAMGWYRQAPGKERELVAAISYSGGSTYYADSVKGRFTISRDNAKNTVYLQMNSLKPEDTAVYYCAATFYGYFDSVFSWGYYYWGQGTQVTVSS	low polyreactivity
QDQIVETGGGLVQAGCSLRLSCAASGSIYYNSMGWYRTAHAKETELVASISTGDSTDYADSVKGRFTISRDYAKYTVYLQMNSLKPEDTAVYYCKAVASQHDEFDYWGQGTQVTVSS	low polyreactivity
